Results as given in US8076300B2, “FGF2-binding peptides and uses thereof” (Tecnogen S.p.A., priority 2006, dated 2011).

Legend:
FGF2 [1] = biological target: T1, FGF2 (Homo sapiens, UniProt P09038); details: cited from earlier work
Target sequence in this assay (P09038 143-288): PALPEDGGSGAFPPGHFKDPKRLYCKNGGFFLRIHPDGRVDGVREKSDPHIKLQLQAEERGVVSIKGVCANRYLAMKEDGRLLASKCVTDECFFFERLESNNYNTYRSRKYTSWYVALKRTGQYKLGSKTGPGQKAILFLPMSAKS

MAE cells = assay: Cell proliferation assay, retrovirus infected MAE cells stimulated with FGF2; type: cell-based, murine; details: retroviral overexpression in MAE cells, FGF2 0.55 nM, 48 h
From the text: The cDNAs encoding for human PTX3 and for the enhanced green fluorescent protein (EGFP) were obtained as described^17. The cDNAs encoding for the N-terminal fragment PTX3(1-178) (Nterm-PTX3) and the C-terminal fragment PTX3(179-381) fused to the leader sequence for secretion PTX3(1-17) (sCterm-PTX3) were generated from pLX-PTX3^17 by PCR and standard cloning techniques. All cDNAs were cloned in the pBABE retroviral vector thus generating pBABE-PTX3, pBABE-Nterm-PTX3, pBABE-sCterm-PTX3, and pBABE-EGFP that were used to transfect the EcoPack2-293 packaging cells in the presence of Lipofectamin 17. Transduced cells were selected with puromycin (1 μg/ml, Sigma) for 2 weeks. Clones with a viral titer higher than […] were used for further experimentation. Confluent cultures of MAE cells were then incubated for 24 hours with the conditioned medium from pBABE-PTX3, pBABE-Nterm-PTX3, PBABE-sCterm-PTX3, or pBABE-EGFP packaging cells in the presence of polybrene (8 μg/ml, Sigma). Infected cell populations were selected for 7 days with puromycin. […] To assess the levels of transgene protein expression and release by infected cells, cell cultures were grown under serum-free conditions for 2 days. […]
Cell proliferation assay on endothelial cells was performed as described^22. […] After 24 or 48 h, respectively, cells were trypsinized and counted in a Burker chamber.

GM7373 cells = assay: Cell proliferation assay, endothelial GM7373 cells; type: cell-based, bovine; details: FGF2 0.55 nM
Method: Cell proliferation assay on endothelial cells was performed as described^22. Briefly, GM7373 or MAE cells were seeded in 96-well dishes at 75,000 cells/cm^2 or 25,000 cells/cm^2, respectively. After 16 h, cells were incubated in fresh medium containing 0.4% FCS plus FGF2 (0.55 nM) in the absence or in the presence of different antagonists. After 24 or 48 h, respectively, cells were trypsinized and counted in a Burker chamber.

FGF2/PTX3 interaction = biological target: T2, FGF2/PTX3 interaction (Homo sapiens, UniProt P09038+P26022); assay: Solid phase binding assay, biotinylated PTX3 (bPTX3) binding to immobilized FGF2 with competitors; details: bPTX3 22 nM, competitor 10 fold-molar excess (220 nM)
T2 construct: biotinylated PTX3 (bPTX3, 22 nM) in the absence or in the presence of a 10 fold-molar excess of full length PTX3; made in house; host or cells: FGF2: E. coli; PTX3: Chinese hamster ovary cells
T2 sequence (P09038 134-288): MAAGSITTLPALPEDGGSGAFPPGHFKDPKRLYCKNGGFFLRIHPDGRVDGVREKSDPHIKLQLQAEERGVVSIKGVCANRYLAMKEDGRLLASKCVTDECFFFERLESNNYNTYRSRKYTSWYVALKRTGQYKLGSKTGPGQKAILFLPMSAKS
T2 sequence (P26022 18-381): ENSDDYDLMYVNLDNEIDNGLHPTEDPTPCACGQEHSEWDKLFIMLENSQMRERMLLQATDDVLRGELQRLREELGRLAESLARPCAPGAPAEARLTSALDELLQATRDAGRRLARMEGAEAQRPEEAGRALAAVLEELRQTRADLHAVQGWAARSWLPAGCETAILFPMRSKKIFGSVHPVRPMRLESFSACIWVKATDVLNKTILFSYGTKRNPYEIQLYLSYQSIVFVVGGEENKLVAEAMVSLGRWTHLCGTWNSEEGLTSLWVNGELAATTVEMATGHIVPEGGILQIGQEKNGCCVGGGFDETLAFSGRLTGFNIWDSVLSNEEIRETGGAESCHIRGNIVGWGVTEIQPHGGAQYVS
Method: ELISA microplates were incubated for 16 hours at 4° C. with 100 μl/well of 100 mM NaHCO3, pH 9.6 (coating buffer) containing FGF2 (270 nM). Then, wells were overcoated for 2 hours at room temperature with 5% dry milk in coating buffer. […] Then, 100 μl/well of the chromogen substrate 2,29-azinobis(3-ethylbenzthiazolinesulfonic acid) were added. Absorbance values were read at 405 nm in an automatic ELISA reader. In some experiments, 100-μl aliquots of PBS containing biotin-labeled PTX3 (bPTX3) (22 nM) were incubated for 30 minutes at 37° C. onto FGF2-coated wells with or without competitors. Then, wells were washed, and the amount of bound bPTX3 was evaluated as described^17. Alternatively, synthetic PTX3 peptides were immobilized on ELISA microplate wells (200 μg/well) as described above. Then, FGF2 (80 nM) was added and FGF2 bound to immobilized peptides was assessed by 1 hour incubation at 37° C. with a rabbit polyclonal anti-FGF2 antibody (1:7000) followed by immunocomplex detection as described above.

FGF2 [2] = biological target: T1, FGF2; assay: Solid phase binding assay, PTX3 proteins on FGF2-coated wells; parameters: made in house; host or cells: E. coli; details: proteins at 44 nM, 30 minutes at 37° C.
Method: (§1) ELISA microplates were incubated for 16 hours at 4° C. with 100 μl/well of 100 mM NaHCO3, pH 9.6 (coating buffer) containing FGF2 (270 nM). Then, wells were overcoated for 2 hours at room temperature with 5% dry milk in coating buffer. […] Then, wells were sequentially incubated for 1 hour at 37° C. with a rabbit polyclonal anti-PTX3 antibody (1:2000 dilution) that recognizes both PTX3 fragments with similar efficiency in Western blot and ELISA, an anti-rabbit biotinylated antibody (1:2000), and 100 μl of streptavidin-horseredish peroxidase (1:5000, Amersham) for 1 hour at room temperature. Then, 100 μl/well of the chromogen substrate 2,29-azinobis(3-ethylbenzthiazolinesulfonic acid) were added. Absorbance values were read at 405 nm in an automatic ELISA reader. In some experiments, 100-μl aliquots of PBS containing biotin-labeled PTX3 (bPTX3) (22 nM) were incubated for 30 minutes at 37° C. onto FGF2-coated wells with or without competitors. Then, wells were washed, and the amount of bound bPTX3 was evaluated as described^17. Alternatively, synthetic PTX3 peptides were immobilized on ELISA microplate wells (200 μg/well) as described above. Then, FGF2 (80 nM) was added and FGF2 bound to immobilized peptides was assessed by 1 hour incubation at 37° C. with a rabbit polyclonal anti-FGF2 antibody (1:7000) followed by immunocomplex detection as described above.
Target sequence in this assay (P09038 134-288): as the sequence (P09038 134-288) above

FGF2 [3] = biological target: T1, FGF2; assay: Solid phase binding assay, FGF2 binding to immobilized synthetic PTX3 peptides; parameters: made in house; host or cells: E. coli; details: peptides 200 μg/well, FGF2 80 nM
Method: as §1
Target sequence in this assay (P09038 134-288): as above

FGF2 [4] = biological target: T1, FGF2; assay: BIAcore binding assay, FGF2 binding to PTX3 immobilized to a sensorchip; parameters: made in house; host or cells: FGF2: E. coli; PTX3: Chinese hamster ovary cells
Method: A BIAcore X apparatus (BIAcore Inc, Piscataway, N.J.) was used. Surface plasmon resonance was exploited to measure changes in refractive index caused by the ability of FGF2 to bind to PTX3 immobilized to a BIAcore sensorchip. To this purpose, PTX3 (2.2 μM) was allowed to react with a flow cell of a CM4 sensorchip that was previously activated with 50 μl of a mixture of 0.2 M N-ethyl-N′-(3-dimethylaminopropyl)-carbodiimide hydrochloride and 0.05 M N-hydroxysuccinimide. These experimental conditions allowed the immobilization of 5,000 resonance units (RUs), corresponding to approximately 0.1 pmoles of PTX3. Similar results were obtained for immobilization of gelatin, here used as a negative control and for blank subtraction. Increasing concentrations of FGF2 with or without synthetic PTX3 peptides were then injected in dilution buffer (PBS plus 0.005% surfactant P20, 5.0 μg/mL CaCl2 and MgCl2) over the PTX3 surface for 4 minutes (to allow their association with immobilized PTX3) and then washed until dissociation was observed.
Target sequence in this assay (P09038 134-288): as above

Substance	FGF2 binding (FGF2 [1])	capacity of infected cells to proliferate in response to exogenous FGF2 (MAE cells)	inhibition of FGF2 mitogenic activity by conditioned medium of infected MAE cells (GM7373 cells; 24 h)	inhibition of mitogenic activity exerted by FGF2 (GM7373 cells; peptides 66 μM, PTX3 220 nM)	prevention of bPTX3 binding to immobilized FGF2 (FGF2/PTX3 interaction)	prevention of bPTX3 binding to immobilized FGF2 (FGF2/PTX3 interaction; listed as full length PTX3)	binding to FGF2 immobilized to non-tissue culture plastic (FGF2 [2])	binding of free FGF2 to immobilized peptide or PTX3 (FGF2 [3])	FGF2 bound at the end of the injection phase (FGF2 [4]; FGF2 0.8 μM over immobilized PTX3)	kinetic dissociation constant (koff) of FGF2/PTX3 interaction (FGF2 [4]; FGF2 0.1 to 1.1 μM over immobilized PTX3) [s⁻¹]
CRP: classical short-pentraxin C-reactive protein	inefficient FGF2 binders	–	–	–	–	–	–	–	–	–
PTX3: Human recombinant PTX3 (swiss-prot P26022) expressed in Chinese hamster ovary cells; long-pentraxin	–	significant decrease	significant inhibition	inhibit	prevents the capacity of bPTX3 to bind immobilized FGF2	prevented the binding	showed the capacity to bind FGF2	binds	350-400 RU	6e-05
SAP: classical short-pentraxin serum amyloid P component	inefficient FGF2 binders	–	–	–	–	–	–	–	–	–
